Laboratory results taken from the DeepSol protein solubility set.

test: soluble on expression in E. coli; label from the status in PepcDB or PDB records

**Q.** Which “soluble on expression in E. coli” value does the source give for “MSLLLEPSAAMIKEQKLYREMGLTDEEFARIEAILGRLPNYTETGIFAVMWSEHCSYKNSKPVLKKFPTDGPHVLQGPGEGAGIVDIGDGLAVAFKIESHNHPSAIEPYQGAATGVGGIIRDVFSMGARPIALLNSLRFGELTSPRVKYLFEQVVAGIAGYGNCVGIPTVGGEVQFDPAYEGNPLVNAMCVGIIRHEDIQRGVATGVGNTVMYVGAKTGRDGIHGATFASEELSEQSEAKRPAVQVGDPFMEKLLLEACLEAVKSDALVGIQDMGAAGLTSSSAEMASKGGFGIEMNLDLVPQREAGMTPYEMMLSESQERMLLVVKQGCEDEIAAIFAKYGLEAKAIGKVTDDKMLRLFFRGEVAAEIPVDALAKDAPVYHKPSAEPAYYREFQAMPPYIPHIEDYNQTLLGLLAQPTIASKEWVYDQYDYMVRTNTVVAPGSDAAVVRIRGTNKALALTTDCNSRYLYLDPETGGKIAVAEAARNVVCSGAKPLAITDCLNFGSPEKPEIFWQLEKAVDGMSEACRALGTPVVSGNVSLYNETNGEAVYPTPVVGMVGLIDDLSHITTQSFKQAGDLIYVIGEAKPEFGGSELQKWLEGRIFGKAPEIDLEVEASRQRQLLAAIRAGVVASAHDIAEGGLAVALAECVMGASGLGAKVTIGGDLVSELFSETQSRFVVSVKKEQKEAFEQLVEAKQIGEVTDDGAFVVNGEHGETLIHLSVAKMRNVWKGAIPCLLKSKD” here?
**A.** The value was “not soluble”.

**Q.** Which “soluble on expression in E. coli” value does the source give for “MSLLQRDLVNTTGFLRMIMEHNYEKFASVYDAVMDDSLYDLWTDFSLRHLPKSKGRNRLLELACGTGIQSVRFAQAGFDVTGLDLSQDMLAIAKKRAQSAKKKIDFIQGNMLDLSQVGQFDFVTCYSDSICYMQDEVDVGDVFKEVYDVLANDGIFIFDVHSTYQTDECFPGYSYHENADDFAMVWDTYADEAPHSVVHELTFFIQEDDGRFSRFDEVHEERTYELLTYDILLEQAGFKSFKVYADFEDKEPTKTSKRWFFVAYKEGHHHHHH” here?
**A.** Its value is “soluble”.

**Q.** With “MSLLQTKPYTFWFITGSQHLYGEDAIEQVRQHSQTMVEKLNKIGELPYTIELKEVLTTPDAIRKMVIAANSDDDCAGMITWMHTFSPAKMWINGLKQLKKPLLHLHTQFNREIPYDDIDMDFMNLNQSAHGDREYGHIGARLNISRKVIVGHWQNNDVQERLGAWMRTAAAFVDGHHLKVARFGDNMREVAVTEGDKVEAQIQFGWSITAFGIGDLVEKMKAVSEDEVRRLFDEYQELYRLSPSILEQDEVKAAVLEQAKMELALKEFLEEGGYTAFTTNFEDLHGMKQLPGLAVQRLMAEGYGFGGEGDWKTAALLRMMKIIADGKGTSFMEDYTYHLAEGNELVLGSHMLEICPTIAANQPEIQVHPLGIGGKEDPARLVFDGADGPALNASLIDLGHRFRLVVNEVEAIKPERDMPKLPVAKVLWKCKPSLSEATEAWIHAGGAHHTVFSFEVTPEQLYDWATLADIEVVFINDKTDVLQFQQQLQWNEAFRRLFKEGHHHHHH” as the sequence, how does the “soluble on expression in E. coli” value read?
**A.** The value was “soluble”.

**Q.** Which “soluble on expression in E. coli” value does the source give for “MSLLRFGIISTAKIAQDHVIPAIQDAENCVVSAIASRDHARARAVAERFSVPHAFGSYEEMLASDVIDAVYIPLPTAQHVEWTIKAANAGKHVLCEKPIALKAEEIDTLIAARDRNGVIVSEAFMVTYSPVWAKVKELLASGAIGTLKHVQGAFSYFNRDPGNMRNIPELGGGALPDIGVYPTIVTRFATGAEPRRVQATVERDREFGTDIYSSVRADFGTFELSFYLATQLASRQLMVFHGTDGYIEVKSPFNANRWGAEEIELTNQAHNQSQVFRFQDSRQYKLEAEAFARAVRGEGEVVTLENSRKNQLFIDAIYRAAEKDGWETVEGHHHHHH” here?
**A.** The value was “soluble”.

**Q.** For “MSLLSGDETLTVYLARVLSCPELFRVSTPEEARRIAEKILSGEIEPPLEFFGLRRDAVNEVLAVTDGPAGENVAPVGLRVRGDSIVVNLYPGSRTYENFVRTEELTACIVPDPIRFLKALSKELAIETVGDGTKVAEGTRAYLELEAKEIHEGKPLTAELQVVGWGLLHPRPRALVRGESALLEALVELTRIHLDEDHVDACKRALEVVKRTIWSEEYQWAVEKVERELRGKEDGPDHQDTSPRIRRATGEGHHHHHH”, which “soluble on expression in E. coli” value is on record?
**A.** Its value is “soluble”.

**Q.** With “MSLLTVVQDQQSSNDDSGVGRSLLDEIVRDGARQMLAAALAAEVAAYIEQFAEHLDEHGRRLVVRNGYHHERDVLTAAGAVTVTAPRVNDRRVDAETGERQRFSSAILPAWSRKSPQMTEVLPLLYLHGLSSGDFSAALEQFLGTGAGLSASKITRLTAQWQDEAKAFADRDLSGTDFVYLWVDGIHLKVRLEQQKLCLLVMIGVRADGRKELVALTDGFRESTESWADLLRSCRRRGMTAPVLAVGDEALGFWKALREVFPDTREQRCWFHKQANVLAALPKSAHPGATAAMREIYNAEDIDKAQVAIKAFEVDYGAKYPKAVAKIVDDADVLLEFYRYPAEHWIHLRTTNPIESTFATVRLRTKVTKGPGSRAAGIAMAYKLIDAAQARWRAVNAPHLVALVRAGAVFHKGKLLEREGHHHHHH” as the sequence, how does the “soluble on expression in E. coli” value read?
**A.** The value was “not soluble”.

**Q.** For “MSLLYTTPRLNISAFLFMKQQLSFLFLLSGLLAGCSSTPNPNLEQINQFTGGKTIGDATSFYWYTESFQKPSSASDYVTSGDYGSYQTSYRWEEGQVREIRREGEHLDGKKLVPFRVHIRFSKEGEAVYQQYRLGGKVLPMNEEQLAHYVLQAKAVAEATKEQDKQGLELIQGYWNGKTFETCQGVEYQRVEFNQSLPSFVFNRLASIESYVAFLGKIRNGKVHIDELLLLDDAGHDCVKEPELLDEGHHHHHH”, which “soluble on expression in E. coli” value is on record?
**A.** The value was “soluble”.

**Q.** Which “soluble on expression in E. coli” value does the source give for “MSLMFHVVDDSEMLREMLVDMIEIYDCNVMTFASASEYLEYVRSDAFKAPSAVLTDVHMPQMSGYEMMEQVLAIDPSIRFAILSGEPDIPARYQDKVCLFLGKPYTGDQIQNMIYIFKQCELNSASEGHHHHHH” here?
**A.** Its value is “soluble”.

**Q.** For “MSLMHTRYFTPSAQWIVQQLWPETLRFAKIEYLYPFKLRLSGVQIASEPTIELQQMDLWLNPYGLLEQQLEIDSVLIDGANLAHGLPNFTLPESVHLNQLALHNIDWADQGIIARGVSLQIKQPVWDSPQQQLPYGKIQLAADQITIDGEAFNQVLVDANYQAQDSTVYGFSFNWRNSPISGQAEQYPQGWSLINVTLSRLNLNLDEWRHHSLWQTIAPSIYHINSLDLLNSQLTLNGVAWENLNLSVEDYDLRHSLWQQQQAYLSLNADSAQWLATQWVEPSAELTLTPQGIELDGHSQVWQGDVQVKGHITETSLNLAQLTITGVKWIAEQPQDLLPFSQPLPAWQNLQIEHLDINNLQMIQTVNRPFWQASGLNADGKNLQWVKESQWGFWQGQLSVTANSASYAGVLSTQGVLNMRSEQGVWQLTRAFLPLERGYVEAHAKWDLTSLSAPWQLSLDADSLPIGPLQSWFKLPFGLEALADISLTAQGIAGDRTMLAHSLDGQLQLNLRQGLLSLRSDNTLIIQPFELDDLAVSADRGRITITPTPLRGPNLNAQLGGSTDLLEPEQGQWQLTIQQAWADQCLGLSWDFQQAELVSQDCRSAPEGHHHHHH”, which “soluble on expression in E. coli” value is on record?
**A.** The value was “soluble”.

**Q.** Which “soluble on expression in E. coli” value does the source give for “MSLMKCLLVSSVEGYSGKSGIIIALGLKLREMGYEVGYFKALGVNTVKVGDRAVEEDSLITAKILGVEEDVCPVVLDRPYIDFATSVDPVVLRKAVLDRFTEVSEGKDVVIVEGSQNYRTGVAVGIDDASVAKMLSAKVLLVGKYVNDFVVDEVLAAKSAFGTMLEKVVFNQVSGYKMSYIEGIARKVLNEAGLDIVGAIPRNPVLAGLSVEEIREAVSGEYLIEPREEKMVEQVVIGAMSPQSALRYLREARNAALVTGGDRSDLLLTALEMPNVRCLILTGNLEPVQLVLTKAEERGVPVILTGHDTLTAVSRLESVFGRTRIRGEPKVGIMRELFESHVNVKTIIEYLGLDEGHHHHHH” here?
**A.** Its value is “soluble”.

**Q.** For “MSLMLSHNPIVEPFALAHATIVTGDKAGTILRNMTIVVGADGRIEQVAPSIETSIPAEYHYLDGTGKIVMPGLINAHTHLFSQGKPLNPKLATPKGQRMVATFAHSPLGKPYMAATVKHNATTLLESGVTTIRTLGDVGYEVVTLRDQIDAGQILGPRILASGPLMAIPEGHGAPLIALTSGTPEEARTAVAQNLKAGVNAIKIAATGGVTDAQEIGEAGSPQMSVEQMRAICDEAHQYGVIVGAHAQSPEGVRRSLLAGVDTIEHGSVLDDELIGMFRHNPNALRGYSALIPTLSAGLPLTLLGQDVTGITDIQLENSKNVVGGMVSGARQAHEAGLMIGVGTDTGMTFVPQYATWRELELLVAYAGFSPAEALHAATAVNASILGVDAETGSLEVGKSADLLVLNANPLDDLRALEHPALVIAAGHPVWRPGPKRFADIDALLDEAYAEGHHHHHH”, which “soluble on expression in E. coli” value is on record?
**A.** The value was “soluble”.
